Assay results published in article PMC4175418 (Methods in molecular biology (Clifton, N.J.), 2014).

Biological target: HIV-1 Rev (HIV-1, UniProt P04618)
Sequence (P04618 whole entry): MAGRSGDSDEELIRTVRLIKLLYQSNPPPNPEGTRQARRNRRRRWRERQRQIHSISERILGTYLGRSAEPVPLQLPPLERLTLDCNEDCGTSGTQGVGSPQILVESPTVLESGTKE

B1: anti-Rev Fab (chimeric rabbit/human) (Fab, V domains shown)
VH: QEQLVESGGRLVTPGTALTLTCKVSGFSLSGFWLNWVRQAPGKGLEWVGAIYRGSGSEWYASWAKGRFTISDTSTTVTLKLTSPTTEDTATYFCAADTTDNGYFTIWGPGTLVTVSS
VL: ELVMTQTPSSVSEPVGGTVTIKCQASQSISSWLSWYQQKPGQPPKLLIYDASNLASGVPSRFMGSGSGTEYTLTISGVQREDAATYYCLGGYPAASYRTAFGGGTELEII
- Kd: < 0.1 nM
- stoichiometry N: 1
